Drawing on article doi:10.1101/2021.12.16.472980, this text covers stoichiometry N for one substance.

For this experiment, the target named is Suppressor of potassium transport defect 3 (SKD3), mature IMS form, residues 127-707 (human) (UniProt Q9H078). As to the kind of experiment: AUC.

Broadly, the stoichiometry N is a count of units in the complex or per binding partner. “Suppressor of potassium transport defect 3 (SKD3), mature IMS form, residues 127-707 (from UniProt Q9H078 127-707) (enzyme)” came in with a stoichiometry N of 12.
